Test results reported in patent publication US20240400708A1.
Numbering of substitutions follows the chain as printed. Names and notes keep the numbering of the source.

B1: feline IgG1a Q311W/D312P/S434Y (antibody, part only; not given: Variable domains, not shown: another chain or arm of the molecule)
constant: ASTTAPSVFPLAPSCGTTSGATVALACLVLGYFPEPVTVSWNSGALTSGVHTFPAVLQASGLYSLSSMVTVPSSRWLSDTFTCNVAHPPSNTKVDKTVRKTDHPPGPKPCDCPKCPPPEMLGGPSIFIFPPKPKDTLSISRTPEVTCLVVDLGPDDSDVQITWFVDNTQVYTAKTSPREEQFNSTYRVVSVLPILHWPWLKGKEFKCKVNSKSLPSPIERTISKAKGQPHEPQVYVLPPAQEELSRNKVSVTCLIKSFHPPDIAVEWEITGQPEPENNYRTTPPQLDSDGTYFVYSKLSVDRSHWQRGNTYTCSVSHEALHYHHTQKSLTQSPGK
B2: feline IgG1a Q311W/L314K (antibody, part only; not given: Variable domains, not shown: another chain or arm of the molecule)
constant: B1 constant with P198D, L200K, Y322S
B3: feline IgG1a S252F/S434F (antibody, part only; not given: Variable domains, not shown: another chain or arm of the molecule)
constant: B1 constant with S138F, W197Q, P198D, Y322F
B4: feline IgG1a S252F/S434W (antibody, part only; not given: Variable domains, not shown: another chain or arm of the molecule)
constant: B1 constant with S138F, W197Q, P198D, Y322W
B5: feline IgG1a S252F/S434Y (antibody, part only; not given: Variable domains, not shown: another chain or arm of the molecule)
constant: B1 constant with S138F, W197Q, P198D
B6: feline IgG1a S252Y/D312P/L314K (antibody, part only; not given: Variable domains, not shown: another chain or arm of the molecule)
constant: B1 constant with S138Y, W197Q, L200K, Y322S
B7: feline IgG1a S252Y/Q311W (antibody, part only; not given: Variable domains, not shown: another chain or arm of the molecule)
constant: B1 constant with S138Y, P198D, Y322S
B8: feline IgG1a S252Y/Q311W/D312P (antibody, part only; not given: Variable domains, not shown: another chain or arm of the molecule)
constant: B1 constant with S138Y, Y322S
B9: feline IgG1a S252Y/Q311W/L314K (antibody, part only; not given: Variable domains, not shown: another chain or arm of the molecule)
constant: B1 constant with S138Y, P198D, L200K, Y322S
B10: feline IgG1a S434W (antibody, part only; not given: Variable domains, not shown: another chain or arm of the molecule)
constant: B1 constant with W197Q, P198D, Y322W
B11: feline IgG1a S252Y/S428Y/D312P (antibody, part only; not given: variable domains, not shown: another chain or arm of the molecule)
constant: B1 constant with S138Y, W197Q, S316Y, Y322S
B12: feline IgG1a S252Y/S428Y/L314K (antibody, part only; not given: Variable domains, not shown: another chain or arm of the molecule)
constant: B1 constant with S138Y, W197Q, P198D, L200K, S316Y, Y322S
B13: feline IgG1a S252Y/S434H/Q311W (antibody, part only; not given: variable domains, not shown: another chain or arm of the molecule)
constant: B1 constant with S138Y, P198D, Y322H
B14: feline IgG1a S252Y/S434R/Q311W (antibody, part only; not given: Variable domains, not shown: another chain or arm of the molecule)
constant: B1 constant with S138Y, P198D, Y322R
B15: feline IgG1a S252Y/S434W (antibody, part only; not given: Variable domains, not shown: another chain or arm of the molecule)
constant: B1 constant with S138Y, W197Q, P198D, Y322W
B16: feline IgG1a S252Y/S434W/Q311W (antibody, part only; not given: Variable domains, not shown: another chain or arm of the molecule)
constant: B1 constant with S138Y, P198D, Y322W
B17: feline IgG1a S434Y (antibody, part only; not given: Variable domains, not shown: another chain or arm of the molecule)
constant: B1 constant with W197Q, P198D
B18: feline IgG1a S428Y/D312P/L314K (antibody, part only; not given: Variable domains, not shown: another chain or arm of the molecule)
constant: B1 constant with W197Q, L200K, S316Y, Y322S
B19: feline IgG1a S428Y/L314K (antibody, part only; not given: Variable domains, not shown: another chain or arm of the molecule)
constant: B1 constant with W197Q, P198D, L200K, S316Y, Y322S
B20: feline IgG1a S428Y/L314K/S434Y (antibody, part only; not given: Variable domains, not shown: another chain or arm of the molecule)
constant: B1 constant with W197Q, P198D, L200K, S316Y
B21: feline IgG1a S428Y/Q311W (antibody, part only; not given: Variable domains, not shown: another chain or arm of the molecule)
constant: B1 constant with P198D, S316Y, Y322S
B22: feline IgG1a S428Y/Q311W/D312P (antibody, part only; not given: Variable domains, not shown: another chain or arm of the molecule)
constant: B1 constant with S316Y, Y322S
B23: feline IgG1a S428Y/Q311W/L314K (antibody, part only; not given: Variable domains, not shown: another chain or arm of the molecule)
constant: B1 constant with P198D, L200K, S316Y, Y322S
B24: feline IgG1a S428Y/S434Y (antibody, part only; not given: Variable domains, not shown: another chain or arm of the molecule)
constant: B1 constant with W197Q, P198D, S316Y
B25: feline IgG1a D312P/L314K (antibody, part only; not given: Variable domains, not shown: another chain or arm of the molecule)
constant: B1 constant with W197Q, L200K, Y322S
B26: feline IgG1a S252F/S434R (antibody, part only; not given: Variable domains, not shown: another chain or arm of the molecule; small tags and cut ends)
constant: B1 constant with S138F, W197Q, P198D, Y322R
B27: feline IgG1a D312A (antibody, part only; not given: Variable domains, not shown: another chain or arm of the molecule; small tags and cut ends)
constant: B1 constant with W197Q, P198A, Y322S

What was measured:
[1] = target: feline FcRn complex (FcRn-α subunit and β-microglobulin), biotin labeled (feline); experiment: SPR, pH 6
[2] = target: feline FcRn complex (FcRn-α subunit and β-microglobulin), biotin labeled (feline); experiment: SPR, pH 7.4

| Binder | Kd [1] | Kd [2] |
| --- | --- | --- |
| B1 | 1.53 nM | 37.7 nM |
| B2 | 3.47 nM | 55.8 nM |
| B3 | 173 nM | 2350 nM |
| B4 | 6.15 nM | 1370 nM |
| B5 | 9.28 nM | 1470 nM |
| B6 | 26.7 nM | 1820 nM |
| B7 | 26.9 nM | 953 nM |
| B8 | 35.2 nM | 1130 nM |
| B9 | 10.8 nM | 179 nM |
| B10 | 0.771 nM | 21.6 nM |
| B11 | 15.1 nM | 4080 nM |
| B12 | 7.93 nM | 23300 nM |
| B13 | 8.39 nM | 989 nM |
| B14 | 0.143 nM | 4.44 nM |
| B15 | 10.2 nM | 8380 nM |
| B16 | 6.59 nM | 2190 nM |
| B17 | 0.433 nM | 14.4 nM |
| B18 | 15.2 nM | 6860 nM |
| B19 | 7.63 nM | 1850 nM |
| B20 | 0.793 nM | 17.2 nM |
| B21 | 12.7 nM | 7630 nM |
| B22 | 26 nM | 4190 nM |
| B23 | 10.1 nM | 348 nM |
| B24 | 4.65 nM | 235 nM |
| B25 | 7.24 nM | 311 nM |
| B26 | 3.59 nM | 398 nM |
| B27 | 6.95 nM | 8180 nM |
